We go through 1 sequence from paper PMC10570038.

For this data set, the target named is RBPMS-A dC20 (rat) (UniProt A0A8I6G705). The data set is described as follows: EMSA. As to conditions: apparent; EMSA: 10 nM RNA, 25 mM HEPES pH 7.9, 100 mM KCl, 2 mM MgCl2, 0.625 mM DTT, 0.1 mg/ml BSA, 5% glycerol, 30 C 1 h, then 5 mg/ml heparin 10 min; 5% native PAGE in ….
Chain of RBPMS-A dC20 (rat) (A0A8I6G705 1-177): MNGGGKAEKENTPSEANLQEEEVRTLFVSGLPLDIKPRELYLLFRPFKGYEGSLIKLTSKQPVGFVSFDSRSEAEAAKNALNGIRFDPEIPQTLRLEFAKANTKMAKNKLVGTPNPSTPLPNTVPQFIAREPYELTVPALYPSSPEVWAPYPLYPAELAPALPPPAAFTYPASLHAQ

In the case of “GUCUACGCACCCUCAACCCGCACCUUGCGGGAUG [(CAC)2]”, the Kd turned out to be 2500 nM.
